According to US20240277864A1 (SORRISO PHARMACEUTICALS, published 2024):
Numbering of substitutions follows the chain as printed. Numbers in names are those of the source. Each block holds one binder with its values, some of them ahead of it.

What was measured:
Human TNF-alpha [1] = biological target: T1, Human TNF-alpha (human, UniProt P01375 77-233); assay: cell-based or functional assay
Human TNF-alpha [2] = biological target: T1, Human TNF-alpha; assay: switchSENSE, TNFa immobilised, fluorescence
Human TNF-alpha [3] = biological target: T1, Human TNF-alpha; assay: switchSENSE, ID-38F immobilised, TNF-alpha flowed, fluorescence
Human TNF-alpha [4] = biological target: T1, Human TNF-alpha; assay: competition ELISA: inhibition of TNF-alpha binding to coated TNFR-2 (Enbrel)
Protocol: An ELISA plate was coated overnight with 1.5 μg/ml TNFR-2 (Enbrel) in PBS overnight at 4° C. The plate was then washed and blocked in 1% BSA for >1 h at RT before being used. […] Finally, the plate was washed again and 100 μl/well of TMB were added. Colour development was stopped by adding 50 μl/well of 0.5M H₂SO₄ and OD450 nm measurements were taken using a BMG Labtek Fluostar Omega plate reader.

[5] = biological target: T2, Membrane-bound IL-6 receptor on TF1 cells (human, UniProt P08887 20-468); assay: cell-based or functional assay
T2 sequence (looked up): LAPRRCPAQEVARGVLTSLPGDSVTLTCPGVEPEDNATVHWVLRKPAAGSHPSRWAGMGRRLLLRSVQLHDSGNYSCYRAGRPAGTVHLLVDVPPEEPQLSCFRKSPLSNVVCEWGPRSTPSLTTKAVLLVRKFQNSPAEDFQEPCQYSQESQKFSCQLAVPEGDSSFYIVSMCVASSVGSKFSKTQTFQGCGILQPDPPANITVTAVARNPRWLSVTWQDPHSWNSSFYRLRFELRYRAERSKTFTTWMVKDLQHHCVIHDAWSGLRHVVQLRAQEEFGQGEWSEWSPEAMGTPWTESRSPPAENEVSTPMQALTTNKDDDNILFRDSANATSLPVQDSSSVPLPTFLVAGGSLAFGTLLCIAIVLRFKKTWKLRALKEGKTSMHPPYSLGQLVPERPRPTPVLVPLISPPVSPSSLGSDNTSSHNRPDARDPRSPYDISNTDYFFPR

[6] = biological target: T3, Recombinant soluble human IL-6R (human, UniProt P08887 20-365); assay: cell-based or functional assay
T3 sequence (looked up): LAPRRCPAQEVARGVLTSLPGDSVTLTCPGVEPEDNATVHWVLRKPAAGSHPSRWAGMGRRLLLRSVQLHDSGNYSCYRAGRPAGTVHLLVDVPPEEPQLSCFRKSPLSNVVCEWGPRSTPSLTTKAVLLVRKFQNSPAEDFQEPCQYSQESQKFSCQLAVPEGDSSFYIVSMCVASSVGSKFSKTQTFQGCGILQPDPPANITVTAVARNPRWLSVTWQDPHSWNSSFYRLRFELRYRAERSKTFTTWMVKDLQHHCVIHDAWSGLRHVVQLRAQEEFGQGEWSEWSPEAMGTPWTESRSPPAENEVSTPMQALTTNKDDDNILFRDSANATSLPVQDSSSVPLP

[7] = biological target: T3, Recombinant soluble human IL-6R; assay: cell-based or functional assay; remark: listed apart in the source
[8] = biological target: T3, Recombinant soluble human IL-6R; assay: Biacore (SPR), soluble human IL-6R flowed over the plate
[9] = biological target: T3, Recombinant soluble human IL-6R; assay: gp130 ELISA: inhibition of binding of sIL-6R/IL-6 complex to coated gp130
[10] = biological target: T3, Recombinant soluble human IL-6R; assay: Biacore (SPR), ICVD fixed to the sensor plate, soluble human IL-6R flowed; ICVD on the chip, soluble human IL-6R flowed
Excerpt: The ICVD was fixed to the Biacore sensor plate and soluble human IL-6R was flowed over the plate to detect binding.

T1 sequence (P01375 77-233 limits assumed): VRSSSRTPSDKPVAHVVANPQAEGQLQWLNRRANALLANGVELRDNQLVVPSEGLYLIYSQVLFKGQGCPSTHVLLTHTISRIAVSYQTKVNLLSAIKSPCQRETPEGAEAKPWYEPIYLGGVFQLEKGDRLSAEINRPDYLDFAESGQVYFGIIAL

EC50, nM, M1 cell assay (% inhibition of the IL-6+IL-6R response) [7]: 4.05 nM
B4: ID-142V (VHH)
VHH: DVQLVESGGGLVQAGGSTRLTCKASGSISNINSINVMAWYRQAPGKGRELVAIIGKGGGTNYADFVKGRFTISRDAAKNTVYLQMNSLRPEDTAVYYCYADYEDHDSPHNASWGQGTQVTVSS

TF-1 cell assay EC50 nM (5 ng/ml IL-6) [5]: 0.56 nM | EC50 [9]: 0.22 nM
B5: 20A11 (VHH)
VHH: EVQLVESGGGLVQPGGSLRLSCAASGSVFKINVMAWYRQAPGKGRELVAGIISGGSTSYADSVKGRFTISRDNAKNTLYLQMNSLRPEDTAVYYCAFITTESDYDLGRRYWGQGTLVTVSS

Further lines, the binder ahead of its results:

B1: ID-38F (VHH)
VHH: DVQLVESGGGLVQPGGSLKLSCAASGFDFSSHWMYWVRQAPGKELEWLSEINTNGLITHYGDSVKGRFTVSRNNAANKMYLELTRLEPEDTALYYCARNQHGLNKGQGTQVTVSS
notes: also called ID38F (S. cerevisiae-produced); anti-TNF ICVD
EC50 (nM), L929 assay (neutralisation of TNF-alpha-induced cytotoxicity) (Human TNF-alpha [1]): 0.127 nM | kon (Human TNF-alpha [2]): 8.1e+06 M⁻¹ s⁻¹ | Kd (Human TNF-alpha [3]): 0.0168 nM | koff (Human TNF-alpha [3]): 4.2e-05 s⁻¹ | kon (Human TNF-alpha [3]): 2.5e+06 M⁻¹ s⁻¹ | EC50 (Human TNF-alpha [4]): 0.383 nM

B2: Tocilizumab (antibody, V domains shown)
VH: QVQLQESGPGLVRPSQTLSLTCTVSGYSITSDHAWSWVRQPPGRGLEWIGYISYSGITTYNPSLKSRVTMLRDTSKNQFSLRLSSVTAADTAVYYCARSLARTTAMDYWGQGSLVTVSS
VL: DIQMTQSPSSLSASVGDRVTITCRASQDISSYLNWYQQKPGKAPKLLIYYTSRLHSGVPSRFSGSGSGTDFTFTISSLQPEDIATYYCQQGNTLPYTFGQGTKVEIKR
TF-1 cell assay EC50 nM (5 ng/ml IL-6) [5]: 1.12 nM | M1 cellular assay EC50 [6]: 5.36 nM | EC50, nM, M1 cell assay (% inhibition of the IL-6+IL-6R response) [7]: 4.16 nM | Kd [8]: 0.39 nM | EC50 [9]: 1.83 nM

B3: ID-123V (VHH)
VHH: B4 VHH with D1E
notes: equivalent to ID-142V except N-terminal Glu (lacks the E1D mutation) and tag; not shown: C-terminal Flag, His tag
TF-1 cell assay EC50 nM (5 ng/ml IL-6) [5]: 4.5 nM | M1 cellular assay EC50 [6]: 4.2 nM | EC50, nM, M1 cell assay (% inhibition of the IL-6+IL-6R response) [7]: 2.31 nM | EC50 [9]: 0.498 nM | Kd [10]: 1.1 nM
